{
  "source": "patent US20260125472A1",
  "about": "(HEFEI TG IMMUNOPHARMA, published 2026)",
  "key": {"[1]": {"target": "T1, CD3E&D protein (UniProt P04234 22-105)", "T1 construct": "Purchased from Acro; also called CD3 E&D antigens; CD3E&D antigen protein", "T1 sequence (chain, as listed by the source limits assumed, chain 1 of 2)": "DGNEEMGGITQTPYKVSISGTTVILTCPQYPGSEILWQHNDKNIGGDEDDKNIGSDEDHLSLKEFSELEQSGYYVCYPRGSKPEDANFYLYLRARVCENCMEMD", "T1 sequence (P04234 22-105 limits assumed, chain 2 of 2)": "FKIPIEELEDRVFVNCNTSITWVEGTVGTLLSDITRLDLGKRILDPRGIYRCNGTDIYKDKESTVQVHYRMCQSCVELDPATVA", "assay": "SPR (Biacore 8K), antibody on CM5 chip, CD3 E&D antigen as analyte", "design": "Fold change: reference not given here", "procedure": "In a Biacore 8K (Cytiva) system, the antibody was diluted to 10 μg/mL in HBS-EP running buffer and coupled to a CM5 chip (Cytiva) at a flow rate of 10 μL/min."}, "[2]": {"target": "T2, Trop2 protein (UniProt P09758 27-274)", "T2 construct": "Bought recombinant protein; also called Trop2-Biotin protein (biotin-labelled, bridging ELISA)", "T2 sequence (looked up)": "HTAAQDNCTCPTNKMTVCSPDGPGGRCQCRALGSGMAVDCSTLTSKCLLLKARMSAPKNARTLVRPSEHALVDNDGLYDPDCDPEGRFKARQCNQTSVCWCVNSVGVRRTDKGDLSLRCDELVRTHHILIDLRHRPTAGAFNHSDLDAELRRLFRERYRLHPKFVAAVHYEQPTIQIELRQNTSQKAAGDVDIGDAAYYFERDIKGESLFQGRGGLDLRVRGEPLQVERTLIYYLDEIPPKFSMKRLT", "assay": "ELISA, coated Trop2 protein, OD450", "text": "In this example, the binding properties of the CD3×Trop2 and CD3×PDL1 bispecific antibody (the production method and the amino acid sequences of the heavy and light chains were shown in Example 1) were detected by using ELISA. The CD3E&D, Trop2, or PDL1 protein was coated onto 96-well plates by inventors, and the strength of the signal after the addition of the antibody was used to determine the binding properties of the antibody and the corresponding protein.\n(2) Trop2 protein (purchased from Acro) was diluted to 2 μg/ml with PBS buffer, added to a 96-well plate at a volume of 100 μL/well, and placed at 4° C. overnight. The PBS buffer in the 96-well plate was aspirated, and the plate was washed 6 times with PBST (pH 7.2 PBS containing 0.1% Tween 20) buffer. Then, 200 μL/well PBS/10% BSA was added and incubated at 37° C. for 2 h for blocking. The blocking solution was removed, and the plate was washed six times with PBST. Then, the to-be-tested bispecific antibodies, Cross3×Trop2, Cross303×Trop2, Cross307×Trop2, Cross308×Trop2, Cross309×Trop2, Cross310×Trop2, Cross311×Trop2, Cross312×Trop2, Cross313×Trop2, Cross314×Trop2, Cross316×Trop2, Cross317×Trop2, Cross318×Trop2, Cross323×Trop2, Cross325×Trop2, Cross326×Trop2, and control IgG1LALA (purchased from Bio-Tech), serially diluted with PBST/0.05% BSA, were added at 100 μL/well and incubated at 37° C. for 1 h. The reaction system was removed, and the plate was washed 6 times with PBST. Then, HRP (horseradish peroxidase)-labeled anti-human secondary antibody (Fab specific) (purchased from Sigma) diluted with PBST/0.05% BSA at 100 μL/well. After the plate was washed six times with PBST, TMB (tetramethylbenzidine) was added at 80 μL/well, and incubated at room temperature for 3 min. 4 M sulfuric acid was added at 80 μL/well to terminate the reaction. The absorbance was read at 450 nm using a microplate reader."}, "[3]": {"target": "T3, Trop2 on A-375-Trop2 melanoma cells (UniProt P09758 27-323, limits assumed)", "T3 construct": "whole, on cells", "T3 sequence (looked up)": "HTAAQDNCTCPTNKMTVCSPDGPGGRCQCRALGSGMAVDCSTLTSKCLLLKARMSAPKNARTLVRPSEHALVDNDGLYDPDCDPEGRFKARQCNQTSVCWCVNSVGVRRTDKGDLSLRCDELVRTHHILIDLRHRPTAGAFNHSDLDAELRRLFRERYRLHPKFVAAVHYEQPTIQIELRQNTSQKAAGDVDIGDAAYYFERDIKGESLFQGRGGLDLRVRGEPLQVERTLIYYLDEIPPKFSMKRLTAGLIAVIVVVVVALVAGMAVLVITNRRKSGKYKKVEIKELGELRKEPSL", "assay": "flow cytometry, A-375-Trop2 cells, MFI [panel B]", "procedure": "(2) The tumor cells were diluted to 2×10⁶/ml with PBS and added to a 1.5 ml EP tube at a volume of 100 μl/tube, and goat serum was added thereto at 10 μl/tube. The cells were blocked at 4° C. for 30 min. The serially diluted bispecific antibodies, Cross3×Trop2, Cross303×Trop2, Cross307×Trop2, Cross308×Trop2, Cross309×Trop2, Cross310×Trop2, Cross311×Trop2, Cross312×Trop2, Cross313×Trop2, Cross314×Trop2, Cross316×Trop2, Cross317×Trop2, Cross318×Trop2, Cross323×Trop2, Cross325×Trop2, Cross326×Trop2, and Cross3×PDL1, Cross303×PDL1, Cross307×PDL1, Cross308×PDL1, Cross309×PDL1, Cross310×PDL1, Cross311×PDL1, Cross312×PDL1, Cross313×PDL1, Cross314×PDL1, Cross316×PDL1, Cross317×PDL1, Cross318×PDL1, Cross323×PDL1, Cross325×PDL1, Cross326×PDL1, and control hIgG1LALA (purchased from Bio-Tech) were added and incubated at 4° C. for 30 min. 1 ml of PBS was added to the EP tube, followed by centrifugation at 3500 rpm for 5 min at 4° C. The supernatant was discarded, and the cells were washed again with PBS. After centrifugation, the supernatant was completely discarded, and the cells were resuspended with PBS at 100 μl/tube. Alexa-647-labeled goat anti-human IgG secondary antibody (purchased from Jackson lab) was added at 1 μl/tube and incubated at 4° C. in the dark for 30 min. The cells were washed twice with PBS, and the supernatant was completely discarded after centrifugation. The cells were resuspended with PBS at 200 μl/tube and assay was performed using the flow cytometry."}},
  "data": [
    {"binder": "Cross3ZH07 (antibody, human IgG1, kappa, V domains shown) VH: EVQLLESGGGLVQPGGSLKLSCAASGFTFNTYAMNWVRQAPGKGLEWVARIRSKYNNYATYYADSVKDRFTISRDDSKNTAYLQMNNLKTEDTAVYYCVRHGMFGNSYVSWFAYWGQGTLVTVSS VL: ELVVTQEPSLTVSPGGTVTLTCRSSTGAVTTSNYANWVQQKPGQAPRGLIGGTNKRAPGTPARFSGSLLGGKAALTLSGVQPEDEAEYYCALWYPNPWVFGGGTKLTVLR", "values": [
      {"measurement": "Fold change", "setting": "[1]", "result": 69.1},
      {"measurement": "Kd", "setting": "[1]", "result": 11.4, "unit": "nM"},
      {"measurement": "koff", "setting": "[1]", "result": 0.00138, "unit": "s⁻¹"},
      {"measurement": "kon", "setting": "[1]", "result": 121000, "unit": "M⁻¹ s⁻¹"}
    ]},
    {"binder": "Cross3ZH16 (antibody, human IgG1, kappa, V domains shown) VH: EVQLLESGGGLVQPGGSLKLSCAASGFTFNTYAMNWVRQAPGKGLEWVARIRSKYNNYATYYADSVKDRFTISRDDSKNTAYLQMNNLKTEDTAVYYCVRHGNFGNSYVSWFAYWGQGTLVTVSS VL: ELVVTQEPSLTVSPGGTVTLTCRSSTGAVTTSNYANWVQQKPGQAPRGLIGGTNKRAPGTPARFSGSLLGGKAALTLSGVQPEDEAEYYCALWYPNDWVFGGGTKLTVLR", "values": [
      {"measurement": "Fold change", "setting": "[1]", "result": 105},
      {"measurement": "Kd", "setting": "[1]", "result": 17.3, "unit": "nM"},
      {"measurement": "koff", "setting": "[1]", "result": 0.0243, "unit": "s⁻¹"},
      {"measurement": "kon", "setting": "[1]", "result": "1.41e+06", "unit": "M⁻¹ s⁻¹"}
    ]},
    {"binder": "Cross3ZH09 (antibody, human IgG1, kappa, V domains shown) VH: EVQLLESGGGLVQPGGSLKLSCAASGFTFNTYAMNWVRQAPGKGLEWVARIRSKYNNYATYYADSVKDRFTISRDDSKNTAYLQMNNLKTEDTAVYYCVRHGNFGNSYVSWFLYWGQGTLVTVSS VL: ELVVTQEPSLTVSPGGTVTLTCRSSTGAVTTSNYANWVQQKPGQAPRGLIGGTNKRAPGTPARFSGSLLGGKAALTLSGVQPEDEAEYYCALWYPNPWVFGGGTKLTVLR", "values": [
      {"measurement": "Fold change", "setting": "[1]", "result": 636},
      {"measurement": "Kd", "setting": "[1]", "result": 105, "unit": "nM"},
      {"measurement": "koff", "setting": "[1]", "result": 0.00296, "unit": "s⁻¹"},
      {"measurement": "kon", "setting": "[1]", "result": 28100, "unit": "M⁻¹ s⁻¹"}
    ]},
    {"binder": "Cross3ZH23 (antibody, human IgG1, kappa, V domains shown) VH: EVQLLESGGGLVQPGGSLKLSCAASGFTFNTYAMNWVRQAPGKGLEWVARIRSKYNNYATYYADSVKDRFTISRDDSKNTAYLQMNNLKTEDTAVYYCVRHGNFGNDYVSWFAYWGQGTLVTVSS VL: ELVVTQEPSLTVSPGGTVTLTCRSSTGAVTTSNYANWVQQKPGQAPRGLIGGTNKRAPGTPARFSGSLLGGKAALTLSGVQPEDEAEYYCALWYSNPWVFGGGTKLTVLR", "values": [
      {"measurement": "Fold change", "setting": "[1]", "result": 4090},
      {"measurement": "Kd", "setting": "[1]", "result": 675, "unit": "nM"},
      {"measurement": "koff", "setting": "[1]", "result": 0.055, "unit": "s⁻¹"},
      {"measurement": "kon", "setting": "[1]", "result": 81500, "unit": "M⁻¹ s⁻¹"}
    ]},
    {"binder": "Cross3×Trop2 (bispecific antibody, also called parental Cross3×Trop2 bispecific antibody) scFv: not shown heavy: QVQLQQSGSELKKPGASVKVSCKASGYTFTNYGMNWVKQAPGQGLKWMGWINTYTGEPTYTDDFKGRFAFSLDTSVSTAYLQISSLKADDTAVYFCARGGFGSSYWYFDVWGQGSLVTVSSASTKGPSVFPLAPSSKSTSGGTAALGCLVKDYFPEPVTVSWNSGALTSGVHTFPAVLQSSGLYSLSSVVTVPSSSLGTQTYICNVNHKPSNTKVDKKVEPKSSDKTHTCPPCPAPEAAGGPSVFLFPPKPKDTLMISRTPEVTCVVVDVSHEDPEVKFNWYVDGVEVHNAKTKPREEQYNSTYRVVSVLTVLHQDWLNGKEYKCKVSNKALPAPIEKTISKAKGQPREPQVCTLPPSREEMTKNQVSLSCAVKGFYPSDIAVEWESNGQPENNYKTTPPVLDSDGSFFLVSKLTVDKSRWQQGNVFSCSVMHEALHNHYTQKSLSLSPGK light: DIQLTQSPSSLSASVGDRVSITCKASQDVSIAVAWYQQKPGKAPKLLIYSASYRYTGVPDRFSGSGSGTDFTLTISSLQPEDFAVYYCQQHYITPLTFGAGTKVEIKRTVAAPSVFIFPPSDEQLKSGTASVVCLLNNFYPREAKVQWKVDNALQSGNSQESVTEQDSKDSTYSLSSTLTLSKADYEKHKVYACEVTHQGLSSPVTKSFNRGEC", "values": [
      {"measurement": "EC50 (read off the curve)", "setting": "[2]", "result": "~0.008", "unit": "µg/mL"},
      {"measurement": "EC50 (read off the curve)", "setting": "[3]", "result": "~1", "unit": "µg/mL"}
    ]},
    {"binder": "Cross303×Trop2 (bispecific antibody) scFv: not shown heavy: QVQLQQSGSELKKPGASVKVSCKASGYTFTNYGMNWVKQAPGQGLKWMGWINTYTGEPTYTDDFKGRFAFSLDTSVSTAYLQISSLKADDTAVYFCARGGFGSSYWYFDVWGQGSLVTVSSASTKGPSVFPLAPSSKSTSGGTAALGCLVKDYFPEPVTVSWNSGALTSGVHTFPAVLQSSGLYSLSSVVTVPSSSLGTQTYICNVNHKPSNTKVDKKVEPKSSDKTHTCPPCPAPEAAGGPSVFLFPPKPKDTLMISRTPEVTCVVVDVSHEDPEVKFNWYVDGVEVHNAKTKPREEQYNSTYRVVSVLTVLHQDWLNGKEYKCKVSNKALPAPIEKTISKAKGQPREPQVCTLPPSREEMTKNQVSLSCAVKGFYPSDIAVEWESNGQPENNYKTTPPVLDSDGSFFLVSKLTVDKSRWQQGNVFSCSVMHEALHNHYTQKSLSLSPGK light: DIQLTQSPSSLSASVGDRVSITCKASQDVSIAVAWYQQKPGKAPKLLIYSASYRYTGVPDRFSGSGSGTDFTLTISSLQPEDFAVYYCQQHYITPLTFGAGTKVEIKRTVAAPSVFIFPPSDEQLKSGTASVVCLLNNFYPREAKVQWKVDNALQSGNSQESVTEQDSKDSTYSLSSTLTLSKADYEKHKVYACEVTHQGLSSPVTKSFNRGEC", "values": [
      {"measurement": "EC50 (read off the curve)", "setting": "[2]", "result": "~0.008", "unit": "µg/mL"},
      {"measurement": "EC50 (read off the curve)", "setting": "[3]", "result": "~1", "unit": "µg/mL"}
    ]},
    {"binder": "Cross307×Trop2 (bispecific antibody) scFv: not shown heavy: QVQLQQSGSELKKPGASVKVSCKASGYTFTNYGMNWVKQAPGQGLKWMGWINTYTGEPTYTDDFKGRFAFSLDTSVSTAYLQISSLKADDTAVYFCARGGFGSSYWYFDVWGQGSLVTVSSASTKGPSVFPLAPSSKSTSGGTAALGCLVKDYFPEPVTVSWNSGALTSGVHTFPAVLQSSGLYSLSSVVTVPSSSLGTQTYICNVNHKPSNTKVDKKVEPKSSDKTHTCPPCPAPEAAGGPSVFLFPPKPKDTLMISRTPEVTCVVVDVSHEDPEVKFNWYVDGVEVHNAKTKPREEQYNSTYRVVSVLTVLHQDWLNGKEYKCKVSNKALPAPIEKTISKAKGQPREPQVCTLPPSREEMTKNQVSLSCAVKGFYPSDIAVEWESNGQPENNYKTTPPVLDSDGSFFLVSKLTVDKSRWQQGNVFSCSVMHEALHNHYTQKSLSLSPGK light: DIQLTQSPSSLSASVGDRVSITCKASQDVSIAVAWYQQKPGKAPKLLIYSASYRYTGVPDRFSGSGSGTDFTLTISSLQPEDFAVYYCQQHYITPLTFGAGTKVEIKRTVAAPSVFIFPPSDEQLKSGTASVVCLLNNFYPREAKVQWKVDNALQSGNSQESVTEQDSKDSTYSLSSTLTLSKADYEKHKVYACEVTHQGLSSPVTKSFNRGEC", "values": [
      {"measurement": "EC50 (read off the curve)", "setting": "[2]", "result": "~0.008", "unit": "µg/mL"},
      {"measurement": "EC50 (read off the curve)", "setting": "[3]", "result": "~1", "unit": "µg/mL"}
    ]}
  ]
}
